In the nanobody polyreactivity screen of Harvey et al. (2022):

Experiment: yeast display, Sf9 membrane polyspecificity reagent, FACS + sequencing; frameworks hold sequencing errors
Outline: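 Synthetic nanobody libraries on Saccharomyces cerevisiae BJ5465 were galactose-induced for 36–48 hours, stained 1 hour at 4 °C with 10% biotinylated, detergent-solubilized Sf9 membrane reagent and enriched on streptavidin microbeads. FACS then separated cells into low and high (top ~1%) gates by anti-HA (expression) and streptavidin (reagent binding) fluorescence. Genes were colony-PCR amplified, MiSeq 2 × 250 sequenced and CDR-length filtered. A clone's polyreactivity label is that of its gate of origin.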

Sequence | polyreactivity (PSR sort gate)
QDQHVESGGGLVQAGGSLPLSCADSGSIFPRNAMGWYRQAPGKERELVAAISRIGGSTYYADAVKGRFTISRDNAKNTVYLQMNSLKPEDTAVYYCAAPPSEWQHDYWGQGTQVTVSS | low polyreactivity
QVQLVESGGGLAQAGGSLRLSCAASGNILRINGMGWYRQAPGKERELVASITRSGSTYYADSVKGRFTISRDNAKNTVYLQMNSLKPEDTAVYYCAADSRRYGVRFDYWGQGTQVTVSS | low polyreactivity
QVQLVESGGGLVQAGGSLRLSCAASGFTFYSYVIGWYRQAPGKERELVAAITRGGSTYYADSVKGRFTISRDNAKNTVYLQMNSLKPEDTAVYYCAKRPSYGYNYWGQGTQVTVSS | low polyreactivity
QVHLLESGGGLLQAGGSLRLSCAASGLIFRPYAMGWYRQAPGKERELVAGISFRGDSTYYADSVKGRFTISRDNAKNTVYLHMNSLKPEDTAVYYWNKRKASSSGYNYWGQGTQVTVSS | low polyreactivity
QVQLEESGVGLVQAGGSLRLRCAASGSTVTDNTKGWYRQAPGKERELVAPISGVGSTYYSESVKGRFTISRDNAKNTVYFQMHSLKPEDTAVYYCNVYWGPFYRSGDKYGYWGQGTQVTVSS | low polyreactivity
QVQLVESGGGLVQAGGSLRLSCAASGRTYGHDTMGWYRQAPGKERELVARISRTGSTKYADSVKGRFTISRDNAKNTVYLQMNCLTPEDTAVYYCARVQAGGYGERVYAYHFDYWGQGTQVTVSS | high polyreactivity
QVQLQESVGGLVQAGGSLRLSCAASGNIFPTDRMGWYRQAPGKELEFVATISDGGSTNYADSVKGRFTISRDNAKNTVYLQMNSLKPEDTAVYYCAVWSLGRWRHYYWGQGTQVTVSS | low polyreactivity
QVQLVESGGGLVQAGGSLRLSCAASGSTFGRYVMGLYRQAPGQERELVAAISKNAGSTYYADSVKGRFTISRDNAKNTVYLQMNSLKPEDTAVYYCAADWRTKGYDSLGQGTQVTVSS | high polyreactivity
QVQLVESGGGLVQAGGSLRLSCAASGSTFGLYAMGWYRQAPGKEREFVAAITASGGRTYYADSVKGRFTISRDHAKNTVYLQMNSLKPEDTAVYYCNSRTSHYDKYGYWGQGTQVTVSS | high polyreactivity
QVQLVESGGGLVQAGGSLRLSCAASGSTFQVYAMGWYRQAPGKERELVAAISYRDGNTYYADSVKGRFTISRDNAKNTFYLQMNSLKPEDTAVYYCNAGLYLPSGYRRSNGYESDYWGQGTQVTVSS | high polyreactivity
QVQLVESGGGLVQAGGRLRLSCAASGGTFYTYFMGWYRQAPGKERELVAAISQSGGRTYYADSVKGRFTISRDNAKNTVYLQMISLKPEDTAVYYCAAPDESYSFWRLDGLDYWGQGTQVTVSS | high polyreactivity
QVQLVESGGGLVQAGGSLRLSCAASGNIFVTYAMGWYRQAPGKERELVAGITSSDDSTYYADSVKGRFTISRDNAKNTVYLQMNSLKPEDPAVYYCATYYWEVGIGQYYYWGQGTQVTVSS | low polyreactivity
QVQLVESGGGLVQAGCSLRLSSAASGFTFAYYVMGWYRQAPGKERELVAAISISGGRTYYADSVKGRFTISRDNEKNSVYLQMNRLKPEETAVYYCAADRRTDGHDYWGQGSQVTVSS | high polyreactivity
QVQLVESGGGLVQAGGSLRLSCAASGIIIPVYAMGWYRQAPGKERELVAAISSGGSTYYADSVKGRFTISRDNAKNTVYLQMNSLKPEDTAVFYCAAGYQKGYADPGFDYWGQGTQVTVSS | high polyreactivity
QVQHVESGGGLVQAGGSLRLSCAASVSIFGWKAMGWYRKAPGKERQLVAVITCAGSTNYADSVKGRFTISRDNAKNTVYLQMNSLKPEDTAVYYCAAENLGQGGNFAYFGYYYWGQGTQVTVSS | low polyreactivity
QVQLVESGGGLVQAGGSLRLSCAASGSTFRRNAMGWYRQAPGKERELVAAISRSGGSTYYADSVKGRFTISRDNAKNTVYLQMNSLKPEDTAVYYCAADAARTSHWSGDYWGQGTQVTVSS | high polyreactivity
QVQLVESGGGLVQAGGRLRLSCAASGRIFDPYAMGWCRQAPGKESELVASISWSGGRTYYADSVKGRFTISRDNAKNTVYLQMNSLKPEDTAVYYCAAREWYRYKVRFDYWGQGTQVTVSS | high polyreactivity
QVQLVESGGGLVQAGGSLRLSCAASGNTFSVYTMGWYRQAPGKERELVAAITRGGDSTYYADSVKGRFTISRDNAKNTVYLQMNSLKPEDTAVYYCAADHDGPYAGYDSWGQGTQVTVSS | low polyreactivity
QVQLVHSGGRLVQAGGRLRLSCAASGSTFSSYARGRYIQGPRKERELVAAISWNGGSTYYADSVKGRFTISRDNAKNTVYLQMNSLKPQDTAVYYCAAIYFRNTYSYGMDYWGQGTQVTVSS | high polyreactivity
QVQLVESGGGLVQAGGSLRLSCAASGFTITRYARGWYRQAPGKERELVAVITYSGDTYYADSVKGRFTISRDNAKNTVYLQMNSLKPEDTAVYYCAVERAYYSDTGRYGYDYWGQGTQVTVSS | high polyreactivity
QVQLVESGGGLVQAGGSLRLSCAASGSTFGYYAMGWYRQAPGKERELVAAISGSGGSTYYADSVKGRFTISRDNAKNTVYLQMNSLKPEDTAVYYCAATFHRLPKWGSPYYYWGQGTQVTVSS | high polyreactivity
QVQLVESGGGLVQAGGSLRLSCAASGLTFVRYAMGWYRQAPGKERELVAVISYSGARTYYADSVKGRFTISRDNAKNTVYLQMNSLKPEDTAVYYCAARQYTTGKYDSWGQGTQVTVSS | high polyreactivity

Sequence | polyreactivity (PSR sort gate)
QVPLVESGGGIVQAGGSLRLSCAASGRTFRYNAMGWDRQAPGKEREKVAAITYGGGSTYYADSVKGRFTISRDNEKNTVYLQMNILKPEDTAVYYCATRGVSPSRPGYYCGQGTQVTVSS | high polyreactivity
QVQLVESGGGLVQAGGSLRLSCAASGSTFVRYVMGWYRQAPGKERELVAAISRRGGSTYYADSVKGRFTISRDNAKNTVYLQMHSLKPEDSAVYYCARTVGYSTLLESVSWGQGTQLTVSS | high polyreactivity
QVQLVESGGGLVQAGGSLRLSCAASGFIFSYYAMGWYRQAPGKERELVATITSGGSTNYADSVKGRFTISRDNAKNTVYLQMNSLKPEVTAVNYCATRKYRVPRSYDWGQGTQVTVTS | high polyreactivity
QVQLVESGGGLVQAGGSLRLSCAASGFIFGEYAMGWYRQAPGKERELVAAITWSGGSTSYADSVKGRFTSSRDNAKNTVYLQMNSLKPEDTAVYYCSARWHVYWGGFYYWGQVTQVTVSS | high polyreactivity
QVQLVESGGGLVQAGGSLRLSCAASGNTFTAYVMGWYRQAPGKERELVAGISGRGSSTYYADSVKGRFTISRDNAKNTVYLQMNSLKQEDTAVYYCAAVRTLRTWVYGRYDYWGQGTQVTVSS | high polyreactivity
QVQLVESGGGLVQAGGSLRLSCAASGLTFFKYTMGWYIQAPGKERELVAAINGGGSTNYADSVKGRFTISRDNAKNTVYLQMNSLKPEDTAVYYCAAGLPYGYDYWGQGTQVTVSS | low polyreactivity
QVQLVESGGGLVQAGGSLRLSCAASGRTFRYNAMGWYRQAPGKERELVASITSGGSTNYADSVKGRFTISRDNAKNTVYLQMNSLIPEDTAVYYCAADERRPYWQHSIGSGRPFDYWGQGTQVTVSS | low polyreactivity
QVQLVESGGGLVQAGGSLRLSCAASGIVRQNPMGWYRQAPGKERELVACISQSGGSTYYADSVKGRFTISRDNAKNTVYLQMNSLKPEDTAVYYCAVVSIWGYDYWGEGTQVTVSS | low polyreactivity
QVQLVESGGGLVQAGGSLRLSCAASGSTFDRYALGWYRQAPGKERELVAAITRGGSTYYADSVKGRFTISRDNAKNTVYLQLNSLKPDDTAVYYCAAAHWWVRVRGARYSYWGHGTQVTVSS | high polyreactivity
QVQLVESGGGLVQAGGSLRLSCAAYGSIFDVHAMGWNRQAPGKERELVAAISDSGGSTYYADSVKGRFTISRDNAKNTVYLLMKSLKPDDTAVYYCNADWSWFNYYDFDYWGQGTHVTVSS | low polyreactivity
QVQLVETGGGLVQAGGSLRLSCAASGFTFAPYVMGWSRQAPGKERELVAAINWSGTRTYYADSVKGRFTFSRDNAKNTVYLQMNSLKPEDTAVYYCAARSVTVSGSLQPKRRYGYWGQGTQVTVSS | high polyreactivity
QVQLVESGGGLVQAGGSLRLICAASGRTFSSNAMGWYRPAPGNERELVAAISTSGGRTYYADSVKGRCTISRDNAKNTVYLQMNSLKPEDTAVYYGAAEYVGTGTPDDYAYWGQGTQVTVSS | high polyreactivity
QVHLVESGGCLVQAGGSLRLSCAASGRIFGVYVMGWYRQARGTEREFVAAITWSGGRTYYADSVKGRFTISRDNAKNTVYFQMNSLKPQDTAVYYCAARRSYEYVYWGKGTQVTVSS | high polyreactivity
QVQLVESGGSLVQAGGSLRLSSAASGITFSDYAMRWYRPAPGKESELVAGITSGGSTYYADSVKGRFTISRDNAKNTVYLQMNSLKPEDSAVYYCAAVRRWKYDWGQGTQVTVSS | high polyreactivity
QVQLVESGGGLVQAGGSLRLSCAASGRTFRWNAMGLYRQAPGKERELVADITSGGSTYYADSVKGRFTISSDNAKNTVYLQMNSLKPEDTAVYYCKAYYYYQFPAPASKYDYWGQGTQVTVSS | high polyreactivity
QVQLVESGGGLVQAGGSLRLSCDASGSTFFTYAMGWYRQSPGKERELVAAITRGGSTYYADSVKGRFTISRDNAKHTVYLQMNSLKPEDTAVYYCNVDPFTRQNHGNYWGQGTQVTVSS | high polyreactivity
QVQLQESGRRPGAAGGSPRMSCAASGNIFCVAVMGRYRQAPGKERELVASIGFGCTTYYADSVKCRFTISRDNAKNTVYLQMFSLKPEDTAVYYCAAPHYDWGELDYWGQGTQVPVSS | low polyreactivity
QVQLVESGGGLVQAGGSLRLSCAASGSIFNSYAMGWYRQAPGKERELVAAITRSDGSTYYADSVKGRFTISRDKAKNTVYLQMNSLKPEDTAVYYCAKGVGGYIYSEYDYWGQGTQVTVSS | low polyreactivity
QVQLVESGGGLVQAGGSLRLSCAASGSTYGIYAMGWYRQAPGKERELVAAITLRTDSTYYADSVKGRFTISRDNAKNTVYLQMNSLKPEVTAVYYCARRYRYGYDYWGQGTQVTVSS | low polyreactivity
QVQLVESGGGLVQAGGSLRLSCAASGSTFRNYAMGWYRQAPGKEREFVAAITWSGGRTYYADSVKGRFTISRDNAKNTVYLQMNSLKPEDTAVYYCAARYRRGYDYWGQGTQVTVSS | high polyreactivity
QVQLVESGGGLVQAGGSLRLSCAASGFSFRVYTMGWYRQAPGKERELVAAISYRGGRTYYADTVKGRFTISRDNAKNNVYLQMNSLKPEDSALYYCAATAIYPSAWRMDYWGQGTLVTVSS | high polyreactivity
